These results are taken from patent publication US20120244165A1 (published 2012).

No end group written: not given here.

One test addresses T1, Aβ1-42 fibers (UniProt P05067 672-713).
T1 construct: domain: Aβ1-42; Aggregated, fibrillar state of Aβ1-42 (incubated for days at 37 °C); number of peptide copies not defined; also called Amyloid 1-42 fibrils; fibrillar Aβ1-42
Put plainly: binding affinity ELISA on plates coated with amyloid, alkaline phosphatase anti-mouse IgG detection. As to the method:
(§1) In order to evaluate the specificity of mACI-01-Ab7 C2 to different stages of polymerized amyloid protein, monomeric and polymeric soluble amyloid, particularly, amyloid β (Aβ) protein, and fibrillic amyloid, an ELISA coated with these different stages of polymeric beta-amyloid was performed. Monomers were prepared according to a modified method published by⁷, polymeric soluble amyloid, particularly, amyloid β (Aβ) according to⁸, whereas fibers were performed by incubation of amyloid (Bachem, Switzerland) with a final concentration of 1 μg/μl in Tris/HC1 pH 7.4 at 37° C. for 5 days followed by a centrifugation step (10,000 rpm for 5 minutes). Then amyloid polymers were coated on an ELISA plates with a final concentration of […] and binding affinity ELISA by using an anti-mouse IgG monoclonal antibody (Jackson ImmunoResearch Laboratories, Inc.) labelled with alkaline phosphate was performed.

In a further test the target is T2, Aβ1-42 monomers (UniProt P05067 672-713).
T2 construct: domain: Aβ1-42; Unlabelled monomeric preparation (HFIP film, DMSO, PBS); also called Amyloid monomers; Aβ1-42 monomeric peptide
T2 sequence (P05067 672-713 limits assumed): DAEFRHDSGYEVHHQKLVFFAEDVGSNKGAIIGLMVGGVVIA
Described as above. As for the experimental part: as §1

For a further test, the target named is T3, Aβ1-42 oligomers (UniProt P05067 672-713).
T3 construct: domain: Aβ1-42; Soluble oligomeric preparation (SDS-induced); number of copies not defined; also called amyloid oligomers; polymeric soluble amyloid β (Aβ) protein
T3 sequence (P05067 672-713 limits assumed): as above
The description is as above. As to the method: as §1

The target in test [1] is T4, peptide 12-20 with alanine at aa 17 (A17) (also: biotinylated (position not given here)).
T4 construct: Second library; the entry already carries the alanine
T4 peptide: VHHQKAVFF
Put plainly: ELISA on biotinylated peptides on streptavidin plates. As to the method: (§2) Epitope mapping of the monoclonal antibody mACI-01-Ab7 C2 was performed by ELISA using three different peptide libraries. One library comprises a total of 33 biotinylated peptides covering the complete amino acid (aa) sequence of Aβ1-42 (produced by Mimotopes and purchased from ANAWA Trading SA), the second library contains biotinylated peptides using peptide 12 (aa12-20 of Aβ) from the first peptide library and substituting each amino acid in the sequence by an alanine (see table 41 below), and the third library contains biotinylated peptides 13, 14, or 15 (aa 13-21, 14-22 or 15-23 of Aβ) and substituting in each case the last amino acids to an alanine or to a glycine for aa 21 which is already an alanine (see table 5 below). A biotinylated complete Aβ1-42 peptide was used as positive control (Bachem). Epitope mapping was done according to the manufacturer's (Mimotopes) instructions. Briefly, Streptavidin coated plates (NUNC) were blocked with 0.1% BSA in PBS overnight at 4° C. After washing with PBS-0.05% Tween 20, plates were coated for 1 hour at RT with the different peptides from the library, diluted in 0.1% BSA, 0.1% Sodium Azide in PBS to a final concentration of 10 μM. After washing, plates were incubated for 1 hour at RT with the mACI-01-Ab7 C2 antibody or an isotype control mouse IgG2b antibody, diluted to 10 μg/ml in 2% BSA, 0.1% Sodium Azide in PBS. Plates were washed again and incubated with alkaline phosphatase conjugated goat anti mouse IgG for 1 h at RT. After final washing, plates were incubated with phosphatase substrate (pNPP) and read at 405 nm using an ELISA plate reader.
(§3) It was shown that the monoclonal antibody mACI-01-Ab7 C2 bound specifically to peptides 12, 13, 14 and 15 of the first peptide library. […] A second library with alanine substitutions was used to determine the critical aa for binding to peptide 12-20 ([…]) (SEQ ID NO: 29).

For test [2], the target named is T5, peptide 12-20 with alanine at aa 19 (A19) (also: biotinylated, position not given here).
T5 construct: Second library; the entry already carries the alanine
T5 peptide: VHHQKLVAF
Described as above. As for the experimental part: as §2, §3

The target of test [3] is T6, peptide 12-20 with alanine at aa 20 (A20) (also: biotinylated, position not given here).
T6 construct: Second library; the entry already carries the alanine
T6 peptide: VHHQKLVFA
Described as above. As for the experimental part:
as §2, §3

For test [4], the target named is T7, peptide 12-20 with alanine at aa 16 (A16) (also: biotinylated (position not given here)).
T7 construct: Second library; the entry already carries the alanine
T7 peptide: VHHQALVFF
The description is as above. As for the experimental part: as §2, §3

T1 sequence (P05067 672-713 limits assumed): as above

B1: mACI-01-Ab7 C2 (antibody, mouse IgG2b, kappa, V domains shown)
VH: EVQLVESGGGLVQPGGSLKLSCAASGFTFSSYGMSWVRQTPDKRLELVASINSNGGSTYYPDSVKGRFTISRDNAKNTLYLQMSSLKSEDTAMYYCASGDYWGQGSTLTVSS
VL: DVVMTQTPLSLPVSLGDQASISCRSSQSLVYSNGDTYLHWYLQKPGQSPKLLIYKVSNRFSGVPDRFSGSGSGTDFTLKISRVEAEDLGVYFCSQSTHVPWTFGGGTKLEIKR
notes: also called mC2; Mouse C2
For B1, the IC50 came out at 5.27 nM in the test with Aβ1-42 fibers, 8.3 nM with Aβ1-42 monomers and 2.53 nM with Aβ1-42 oligomers. In addition, the binding result in test [1], in test [2], in test [3] and in test [4] was “no binding (tested: antibody at 10 µg/ml)” throughout.
